Assay results published in PMC7383310.
“And” between values parts separate entries of the source, which are not always exact repeats. Identical values can stand only once.

Molecular target: recombinant human galectin-3 protein (human) (UniProt P17931)
Assay: AlphaScreen or HTRF; indirect AlphaLISA saturation binding; His-tagged tau K18 (0-100 nM, analyte) on anti-His donor beads, untagged GAL-3 (1, 3 and 10 nM) captured by anti-GAL-3 antibody and anti-rabbit IgG acceptor beads; proteins incubated 60 min at 4°C, beads 60 min at RT in the dark; assay buffer in DPBS; Kd = concentration at 50% saturation

UniProt P17931, sequence (P17931 whole entry): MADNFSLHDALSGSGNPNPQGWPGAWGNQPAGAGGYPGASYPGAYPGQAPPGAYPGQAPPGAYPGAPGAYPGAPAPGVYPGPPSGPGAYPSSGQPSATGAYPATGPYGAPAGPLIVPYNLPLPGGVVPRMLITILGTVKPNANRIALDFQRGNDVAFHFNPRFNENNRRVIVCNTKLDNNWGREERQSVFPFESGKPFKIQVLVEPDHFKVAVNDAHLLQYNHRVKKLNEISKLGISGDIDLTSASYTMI

Kd: 8.31 nM and 8.73 nM and 9.13 nM
Substance: His-tagged human tau K18 fragment (domain or fragment)
